{
  "source": "patent US6596261B1",
  "about": "“Method of administering a medicinal aerosol formulation” (Aeropharm Technology Incorporated, priority 2000, dated 2003)",
  "test": "Pharmacokinetics of amylin in rabbits after intravenous versus intrapulmonary administration",
  "type": "in vivo, New Zealand rabbits",
  "settings": "for Vd: average of six; for Ke: elimination rate constant; for K12: rate constant central to peripheral compartment; for K21: rate constant peripheral to central compartment",
  "source_text": "The table listed below discloses the average measured results\nReferring to FIG. 2, the experimental results obtained were compared to the results calculated using formulae (I) through (VI). The calculated data is totally consistent with the experimental data of this EXAMPLE.",
  "key": {"[1]": {"settings": "Intrapulmonary Administration, dose: 7.5 μg/kg"}, "[2]": {"settings": "Intravenous Administration, dose: 5.0 μg/kg"}},
  "note": "Ends that are not written are not given here.",
  "data": [
    {"substance": "amylin (KCNTATCATQRLANFLVHSSNNFGAILSSTNVGSNTY; not fully specified (C-terminus, bridges); cysteine pairing not given here; UniProt P10997 34-70, looked up) [β-cell hypoglycemic medicament; natural, synthetic, semi-synthetic or recombinant amylin or amylin analogs]", "values": [
      {"measurement": "AUC (Area under the blood concentration time course curve)", "setting": "[1]", "value": 16.9670, "unit": "ng·min/mL"},
      {"measurement": "F (Bioavalability), Percent of administered drug absorbed from the lung dose", "setting": "[1]", "value": 24.9, "unit": "%"},
      {"measurement": "T1/2 (Half life of the drug in the body)", "setting": "[1]", "value": 26.3819, "unit": "min"},
      {"measurement": "Vd", "setting": "[1]", "value": 63.0911, "unit": "L"},
      {"measurement": "Ke", "setting": "[1]", "value": 0.02627, "unit": "min⁻¹"},
      {"measurement": "K12", "setting": "[1]", "value": 0.03211, "unit": "min⁻¹"},
      {"measurement": "K21", "setting": "[1]", "value": 0.01774, "unit": "min⁻¹"},
      {"measurement": "AUC (Area under the blood concentration time course curve)", "setting": "[2]", "value": 45.4016, "unit": "ng·min/mL"},
      {"measurement": "T1/2 (Half life of the drug in the body)", "setting": "[2]", "value": 17.1771, "unit": "min"},
      {"measurement": "Vd", "setting": "[2]", "value": 9.5246, "unit": "L"},
      {"measurement": "Ke", "setting": "[2]", "value": 0.0403, "unit": "min⁻¹"},
      {"measurement": "K12", "setting": "[2]", "value": 0.0180, "unit": "min⁻¹"},
      {"measurement": "K21", "setting": "[2]", "value": 0.0075, "unit": "min⁻¹"}
    ]}
  ]
}
